Experimental data reported in paper PMC4623440.

Biological target: human VEGF-A165 (human)

Substance: FcD2, monospecific fusion of hinge, Fc, linker and VEGFR1 D2 (from UniProt P17948 129-229) (Fc fusion)
- inhibition of VEGF-stimulated HUVEC growth (CellTiter-Glo): 2.1 nM
